Results from the supplement of paper PMC5998384.

How the values were obtained:
HeLa Kyoto [1] = experiment: solubility in G1/S (NP-40 vs SDS abundance) (log2 ratio); higher = more soluble; details: cell cycle stage: G1/S
HeLa Kyoto [2] = experiment: melting temperature (median over replicates), in situ; higher = more thermally stable
HeLa Kyoto [3] = experiment: solubility change mitosis vs G1/S (difference of NP-40 vs SDS log2 ratios) (log2 ratio difference); higher = more soluble in mitosis
HeLa Kyoto [4] = experiment: thermal stability score vs G1/S (z-score of summed log2 fold changes over temperatures); higher = more thermally stable than in G1/S
[5] = cell cycle stage: early G1 (4.5 h after nocodazole release)
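Throughout, for melting temperature (median over replicates), in situ: HeLa Kyoto cells synchronized by double thymidine or nocodazole block, proteins quantified by TMT10plex mass spectrometry, three independent biological replicates.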
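Throughout, for solubility change mitosis vs G1/S (difference of NP-40 vs SDS log2 ratios): synchronized HeLa Kyoto cells (double thymidine block for G1/S, nocodazole release for mitosis), protein amounts in NP-40 versus SDS lysates quantified by mass spectrometry, three biological replicates.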
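Throughout, for solubility in G1/S (NP-40 vs SDS abundance): HeLa Kyoto cells arrested at G1/S by double thymidine block, proteins quantified by TMT10plex mass spectrometry in mild NP-40 versus SDS extracts, three biological replicates.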
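Throughout, for thermal stability score vs G1/S (z-score of summed log2 fold changes over temperatures): synchronized HeLa Kyoto cells, proteins quantified by TMT10plex mass spectrometry, three biological replicates, mitosis taken 0.5 h after nocodazole release, G1/S directly after double thymidine block.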

| Sequence | solubility in G1/S (log2) (HeLa Kyoto [1]) | melting temperature (HeLa Kyoto [2]; cell cycle stage: G1/S) | melting temperature (HeLa Kyoto [2]; cell cycle stage: mitosis) | solubility change mitosis (log2) (HeLa Kyoto [3]) | thermal stability score (HeLa Kyoto [4]; [5]) | thermal stability score (HeLa Kyoto [4]; cell cycle stage: mitosis) |
| --- | --- | --- | --- | --- | --- | --- |
| MAAEIHSRPQSSRPVLLSKIEGHQDAVTAALLIPKEDGVITASEDRTIRVWLKRDSGQYWPSIYHTMASPCSAMAYHHDSRRIFVGQDNGAVMEFHVSEDFNKMNFIKTYPAHQNRVSAIIFSLATEWVISTGHDKCVSWMCTRSGNMLGRHFFTSWASCLQYDFDTQYAFVGDYSGQITLLKLEQNTCSVITTLKGHEGSVACLWWDPIQRLLFSGASDNSIIMWDIGGRKGRTLLLQGHHDKVQSLCYLQLTRQLVSCSSDGGIAVWNMDVSREEAPQWLESDSCQKCEQPFFWNIKQMWDTKTLGLRQHHCRKCGQAVCGKCSSKRSSYPVMGFEFQVRVCDSCYDSIKDEDRTSLATFHEGKHNISHMSMDIARGLMVTCGTDRIVKIWDMTPVVGCSLATGFSPH [WDFY1] | -0.607 | 54.2 °C | 54.5 °C | -0.0745 | 1.13 | -1.04 |
| MAAERGAGQQQSQEMMEVDRRVESEESGDEEGKKHSSGIVADLSEQSLKDGEERGEEDPEEEHELPVDMETINLDRDAEDVDLNHYRIGKIEGFEVLKKVKTLCLRQNLIKCIENLEELQSLRELDLYDNQIKKIENLEALTELEILDISFNLLRNIEGVDKLTRLKKLFLVNNKISKIENLSNLHQLQMLELGSNRIRAIENIDTLTNLESLFLGKNKITKLQNLDALTNLTVLSMQSNRLTKIEGLQNLVNLRELYLSHNGIEVIEGLENNNKLTMLDIASNRIKKIENISHLTELQEFWMNDNLLESWSDLDELKGARSLETVYLERNPLQKDPQYRRKVMLALPSVRQIDATFVRF [PPP1R7] | 0.332 | 52.7 °C | 52.8 °C | 0.033 | -1.16 | -2.37 |
| MAAERQEALREFVAVTGAEEDRARFFLESAGWDLQIALASFYEDGGDEDIVTISQATPSSVSRGTAPSDNRVTSFRDLIHDQDEDEEEEEGQRFYAGGSERSGQQIVGPPRKKSPNELVDDLFKGAKEHGAVAVERVTKSPGETSKPRPFAGGGYRLGAAPEEESAYVAGEKRQHSSQDVHVVLKLWKSGFSLDNGELRSYQDPSNAQFLESIRRGEVPAELRRLAHGGQVNLDMEDHRDEDFVKPKGAFKAFTGEGQKLGSTAPQVLSTSSPAQQAENEAKASSSILIDESEPTTNIQIRLADGGRLVQKFNHSHRISDIRLFIVDARPAMAATSFILMTTFPNKELADESQTLKEANLLNAVIVQRLT [NSFL1C] | 0.384 | 51.7 °C | 52 °C | 0.0342 | -1.97 | 1.13 |
| MAAESALQVVEKLQARLAANPDPKKLLKYLKKLSTLPITVDILAETGVGKTVNSLRKHEHVGSFARDLVAQWKKLVPVERNAEPDEQDFEKSNSRKRPRDALQKEEEMEGDYQETWKATGSRSYSPDHRQKKHRKLSELERPHKVSHGHERRDERKRCHRMSPTYSSDPESSDYGHVQSPPSCTSPHQMYVDHYRSLEEDQEPIVSHQKPGKGHSNAFQDRLGASQERHLGEPHGKGVVSQNKEHKSSHKDKRPVDAKSDEKASVVSREKSHKALSKEENRRPPSGDNAREKPPSSGVKKEKDREGSSLKKKCLPPSEAASDNHLKKPKHRDPEKAKLDKSKQGLDSFDTGKGAGDLLPKVKEKGSNNLKTPEGKVKTNLDRKSLGSLPKVEETDMEDEFEQPTMSFESYLSYDQPRKKKKKIVKTSATALGDKGLKKNDSKSTGKNLDSVQKLPKVNKTKSEKPAGADLAKLRKVPDVLPVLPDLPLPAIQANYRPLPSLELISSFQPKRKAFSSPQEEEEAGFTGRRMNSKMQVYSGSKCAYLPKMMTLHQQCIRVLKNNIDSIFEVGGVPYSVLEPVLERCTPDQLYRIEEYNHVLIEETDQLWKVHCHRDFKEERPEEYESWREMYLRLQDAREQRLRVLTKNIQFAHANKPKGRQAKMAFVNSVAKPPRDVRRRQEKFGTGGAAVPEKIKIKPAPYPMGSSHASASSISFNPSPEEPAYDGPSTSSAHLAPVVSSTVSYDPRKPTVKKIAPMMAKTIKAFKNRFSRR [TCEB3] | -0.429 | 47.8 °C | 49.2 °C | 0.454 | 0.335 | 1.24 |
| MAAETRNVAGAEAPPPQKRYYRQRAHSNPMADHTLRYPVKPEEMDWSELYPEFFAPLTQNQSHDDPKDKKEKRAQAQVEFADIGCGYGGLLVELSPLFPDTLILGLEIRVKVSDYVQDRIRALRAAPAGGFQNIACLRSNAMKHLPNFFYKGQLTKMFFLFPDPHFKRTKHKWRIISPTLLAEYAYVLRVGGLVYTITDVLELHDWMCTHFEEHPLFERVPLEDLSEDPVVGHLGTSTEEGKKVLRNGGKNFPAIFRRIQDPVLQAVTSQTSLPGH [METTL1] | 0.231 | 52.4 °C | 54.7 °C | -0.075 | 0.937 | 2.85 |
